Reference: the nanobody polyreactivity screen of Harvey et al. (2022)

Test: yeast display, Sf9 membrane polyspecificity reagent, FACS + sequencing; frameworks hold sequencing errors
Summary of the method: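 Nanobodies from a synthetic yeast display library (Saccharomyces cerevisiae BJ5465), induced 36–48 hours with galactose, were stained 1 hour at 4 °C with 10% biotinylated, detergent-solubilized Sf9 membrane reagent, enriched on streptavidin microbeads, then FACS-sorted. Anti-HA (expression) and streptavidin (reagent binding) fluorescence set low and high (top ~1%) gates. Polyreactivity labels come from the gate of origin. Genes were colony-PCR amplified, MiSeq 2 × 250 sequenced and filtered by CDR length.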

| Sequence | polyreactivity (PSR sort gate) |
| --- | --- |
| QVQLVESGGGLVQAGGSLRLSCAASGSTFQLYAMGWYRQAPGKERELVATISWRGGSTYYADSVKGRFTISRDNAKNTVYLQMNSLKPEDTAVYYCAADFYLRGRYYSRYGSWGQGTQVTVSS | high polyreactivity |
| QVQLVESGGGLVQAGGSLRLSCAASGRTFVSNSMGWYRQAPGKERELVAAISSSGGSTYYADSVKGRFTISRDNEKNTVYLQMNILKPEETAVYYCANDPWYSKYRYDHWGQGTQVTVSS | high polyreactivity |
| QVQLVESGGGLVQAGGSLRLSCAASGRIFYGYTMGCYRQAPGKETELVASITIRGSRTYYADSVKGRFTISRDNAKNTVYVQMNSLKPEDTAVYYCAADFVPARTVHRYDYWGQGTQVTVSS | low polyreactivity |
| QVQLVESGGRLVQAGGSLRLSSAPSGSIFFWYAMGWYRQAPGKERELVAAITQRTGSTYYADSVKGRFTISRDNAKNTVYLQMNSLKPEDTAVYYCAAKRLRRSFTGNYWGQGTQVTVSS | high polyreactivity |
| QVQLVESGGGLVQAGGSLRLSCAASGSIFGYNAMGWSRQAPGKERELVAAITGSGGSTYYADSVKGRFTISRDNAKNTVYLLMNILKPEDTAVYYCADDLVGGPLGYWDYDYWGQGTQVTVSS | low polyreactivity |
| QVQLVESGGGLVQAGGSLRLSCAASGRIFRRYAMGWYRQAPGKERELVASITWGGSSTSYADSVKGRFTISRDNAKNTVYLQMNSLKPEDTAVYYCNADFPTAIPYGYDYWGQGTQVTVSS | low polyreactivity |
| QVHLVESGGGLVQAGGSIRLSCAASGRTFAYNVKGWYIQAPGKVREVVAGISFGAGSTYYADSVKGRFTISRDNAKNTVYLQMNSLKPEDTAVYYCATGRRGTRYPRGYDYWGQGTQVTVSS | high polyreactivity |
| QVQLVESGGGLVQAGGSLRLSCAASGLTFVYNAMGWYRQATGKERELVAAISRVGSTNYADSVKGRFTISRDNAKYTVYLQLNSLKPADTAVYYCNKGNAYVVYTSGYDYWGQGTQVTVSS | low polyreactivity |
| QVQLVESGGGLVQSGGSLRLSCAASGRTFGYYDMGWYRQAPGKERELVASITRRGGSTYYADSVKGRFTISRDNAKNTVYLQMNSLKPEDTAGYYCAARYKARYEPARYDYWGQGTQVTVSS | high polyreactivity |
| QVQLVESCGGLVQAGGSLRLSCAASGSTFTVNAMGWNRQAPVKERELVDAITQSRGSTSYADSVKGRFTISRDNAKNTVYVQMNSLKPEDTAVYYCNAQRGVRSRKSYRRQFDYWGHGTQVTVSS | low polyreactivity |
| QVQLVESGGGLVQAGGSLRLSCAASGRIFGVNAMGWYRQAPGKERELVAAIFSGGSTYYADSVKGRFTISRDTAKNTVYLQMNSLKPEDTAVYYCAARFARYDWSMYYWGQGTQVTVSS | low polyreactivity |
| QVQLVESVGGLDQAGGSLPLSCAASGSTLAVYDMGWSRQAPGKESELVAAISTTGGRTYYADSVKGRFTISRDNSKNTVYLQMNRLKPEDTAVYYCNADAEDVIYYEYDYCGQGTQVTVSS | low polyreactivity |
| QVQLVESGGGLVQAGGSLRLSCADSGSIFRYYFMGCYRQAPGKERELVSAISSGGRTYYADSVKGRFTISRDNAKNTVYLQMNSLNPEDTAVYYCNDQGLFYCEMDYWGQGTQVTVSS | high polyreactivity |
| QVQLVESGGGLVQAGGSLRLSCAASGSTFEVYAMGWYRQAPGKEREMVAAINSRGTSTYYADSVKGRFTISRDNEKNTVYIQMNSLKPEDTAVDFCAARHVYYSGYDYWGQGTQVTGSS | low polyreactivity |
| QVQLVESGGGLVHAGGSLRISCAASGRTFLPYTMGGYRQAHGSERELVADITTSDGSTYYADSVKGRFTISRDYAKNTVYLQMNSLKPEDTAVFYCAAESPWFWAVFDYWGQGTQVTVSS | high polyreactivity |
| QVQLVESGGGLVQAGGSLRLSCAASGFILSWYAMGWYRQAPGKERELVAGISRRGGSTYYADSVTGRFTISRDNAKNTVYLQMNSLKPEDTAVYYCNALYDDWSVSTGDYWGQGTQVTVSS | high polyreactivity |
| EEELVESGGGLVQAGGSLRLSCAASGRTFVYNAMGWYRQAPGKERELVATITRGVSTNYADSVKGRFTISRDNAKNTVYLQMNSLKPEDTAVYYFAAVWYYQFGVWGYYWGQGTQVTVSS | low polyreactivity |
| QVQLVESGGGLVQAGGSLRLSCAASGLTFYWYVMGWYRQAPGKERELVAAITGGGSSTYYADSVKGRFTISRDNAKNTVYLQMNSLKPEDTAVYYCAADYRGGIRYYRGAAYNYWGQGTQVTVSS | high polyreactivity |
| QVQLVESGGGLVQAGGSLRLSCAASGITFTPYAMGWYRQAPGKERELVAAISWRGGSTYYADSVKGRFTISRDNAKNTVYLQMNSLKPEDTAVYYCAKDGRGYGRYSRYYTGDYWGQGTQVTVST | low polyreactivity |
| QVQLVESGGGLVQAGGSLRLSCAASGRIFVRNAMGWYRQAPGKERELVATITSIGGRTYYADSVKGRFTISRDNAKNTVYLQMNSLKPEDTAVYYCAAYNTQSYPAYLRYDYWGQGTQVTVSS | low polyreactivity |
| QVQLVESGGGLVQEGGSLRLSCAASGRTFRINAMGWYRQAPGKERELVAAITSIAGNTYYADSVKGRFTISRDNAKNTVYLQMNSLKPEDTAVYYCAVDSVPWGFRGAYGLTRYYYWGQGTQVTVSS | low polyreactivity |
| QVQLVESGGGLVQAGGSLRLSCASSGSIININVMGWYRQAPGKERELVAAINSGTSTYYADSVKGRFTFSRDNAKITVYLKMNSLKPEDTAVYYCAARNLFTGRRLFYFWGQGTQVTVSS | low polyreactivity |

| Sequence | polyreactivity (PSR sort gate) |
| --- | --- |
| QVQLVESGGGLVQAGGSLRLSCAASGIIFDSYAMGWYRPAPGKERELVAAITSDSGRTYYADSVKGRFTISRDNAKNTVYLQMNSLKPEDTAVYYCAKRWDCPYDYWGQGTQVTVSS | low polyreactivity |
| QVQLVESGGGLVQAGGSLGLSCAASGSIFLRYTLGWYRQAPGKERELVAAISWSGGSTYYADSVKGRFTMSRDNAKNNVYLQMNSLKREDTAVYYCNAVYASWSYPGYDYWGQGTQVTVSS | high polyreactivity |
| QVQLVESGGGLVQAGGSLRLSCAASGSNFASYSMGWYRQSPGKERELVAAITDSGGSTYYADSVKGRLTSSRENGKNTVYLQMNSLKPEDTAVYYCAAYGPYFSYHDYVYWGQGTQVTVSS | low polyreactivity |
| QVQLVESVGGLLQAGGSLRLSCAASGSTFYNYAMGWYRQAPGKERELVAAIRNGGGTNYADSVKGRFTISRDNAKNTVYLQMNSLKPEDTAVYYCSTRLDWRRTYGYWGQGTQVTVSS | low polyreactivity |
| QVQLVESGGGLVQAGGSLRLSCAASGSTFVLYAMGWYRQAPGKERELVATISSGGSTYYADSVKGRFTISRDNAKNTVYLQMNSLKPEDTAVYYCAASYSRFVDWIGDPGYDYWGQGTQVTVSS | low polyreactivity |
| QVQLVESGGGLVQAGGSLRLSCAASGFTFSVYAMGWYRQAPGKERELVAAINWSGSTTYYADSVKGRFTISRDNAKNTVYLQMNSLKPEDTAVYYCAVEGRTTWPFRTYGYWGQGTQVTVSS | high polyreactivity |
| QVQLVESGGGLVQAGGSLRLSCAASGRTYVYNAMGWYRQAPGKERELVAAISSSGGSTRYADSVKGRFTISRDNAKNTVYLQMNSVKPEDTAVYYCNRLRYSNRYDSWGQGTQVTVSS | high polyreactivity |
| QDQLVESGGGLVQAGGSLRLSCAASGSTFVENAMGWYRQAPGKERELVAAISSSGDSTFYADSVKGRFTISRDNAKNTVYLQMNSLKPEDTAVYYCNTPLLKRTTRGRERNYWGQGTQVTVSS | low polyreactivity |
| QVQLVESGGGLVQAGGSLRLSCAASGSTSRGNAMGWYRQAPGKERELVAAISYIGGTTYYADSVKGRFTISRDNAKNTVYLQMNSLKPEDTAVYYCAADLYRSILKPDYDYWGQGTQVTVSS | high polyreactivity |
| QVQLEESGGGLVQAGGSLRLSCAASGIIFWEYAMGWYRQAPGKERELVAAINARGTRTYYADSVKGRFSISRDNAKNTVYLQMNSLKPEDTAVYYCAADRYGWTRYDSWGQGTQVTVSS | high polyreactivity |
| QVQLVESGGGLVQAGGTLRLSCAASGITFYVYAMGWYRQAPGKEREFVAAINGRGGSTYYADSVKGRFTISRDNAKNTVYLQMNSLKPEDTAVFYCAAESLAIYYKYPPYDYWGQGTQVTVSS | high polyreactivity |
| QVQLVESGGGLVQAGGSLRLICAASGIIFAYNAMGWYRQAPGKESELVAAISVIGGTTYYADSVKGRFTMSRDNAKNTVYLRMNSLKPEDSAVYYCAVDSVQYGGGYERLHELYYWGQGTQVTVSS | low polyreactivity |
| QVQLQESGGGLVQAGGTLRLSCAASGSFSADEDMGWYRQAQGKEREFVAGISVGGNTNYADSVKGRFTISRENAKNTVYLQMNILKPEDTAVYYCNARLLYLGSGFYYWGQGTQVTVSS | high polyreactivity |
| QVQLVESGGGLVQAGGSLRLSCAASGIIFGDNAMGWYRQAPGKERELVAAITIGGTSTYYADSVKGRFTISRDNAKNTVYLQMNSLKPEDTAVYYCAKTILYDCDYWGQGTQVTVSS | low polyreactivity |
| QVQLVESGGGLVQAGGSLRLSCAASGRTFLPNPMGWYRPAPGKERELVAVITSVGSTNYADSVKGRCTISRDNAKNTVYLQMNSLKPEDTAVYFCAALKPRTRRAGFNYWGQGTQVTVSS | low polyreactivity |
| QVQLVESGGGLVQAGGSLRLSCAASGSIFIAYGMGWYRQEPGKERELVAAITVSGGNTYYADSVKGRFTISRDNAKNTVYLQMKSLKPEDTAVYYCAADYWYYYGKGLYDYWGQGTQVTVSS | low polyreactivity |
| QVQLVESGGGLVQAGGSLRLSCAASGSISGYYAMGWSRQAPGKERELVASIRYTGARTYYADSVKGRFTISRDNAKNTVYLQMNSLKPEDTAVYYCNAYTRYPFYFVTSKYDYWGQGTQVTVSS | low polyreactivity |
| QVQLVESGGGLVQAGGSLRLTCAASGSIFTAYAMRLYRQAPGKERELVAAIDDSGDSTYYADSVKGRFTISRDNAKITVYLQMNSLKPEDTAVYYCKAEYRVNKEYDYWGQGTQVTVSS | low polyreactivity |
| QVQLVESGGGLVQAGGSLRLSCAASGFTFQGNVMGWYRQAPGKERELVAVITSGGSTYYADSVKGRFTISRDNAKNTVYLQMNSLKPEDTAVYYCAARAYTWGPAGQVEKYYYWGQGTQVTVSS | high polyreactivity |
| QVQLVESGGGLVQAGGSLRLSCAASGLTFKYYAMGWYRQAPGKERELVAAISWRGGSTYYADSVKGRFTISRDNAKNTVYLQMNSLKPEDTAVYYCAAPGNNVRNAPRKRDYWGQGTQVTVSS | high polyreactivity |
| HVQLVESGGGLVQAGGSLRLSCAPSGRTFIGYAMGWYRQAPGKERELVAAITSRGRTNYADSVKGRFTISRDNAKNTVYLQMNSLNPEDTAVYYCAARTYGYWYYGFRGDYWGQGTQVTVSS | high polyreactivity |
